Experimental data reported in publication PMC3868223 (Cytokine, 2013).

Target: T1, IFN-γR1 (ligand-binding chain of the interferon-gamma receptor), fused to a fluorescent protein (UniProt P15260 18-489)
T1 sequence (looked up): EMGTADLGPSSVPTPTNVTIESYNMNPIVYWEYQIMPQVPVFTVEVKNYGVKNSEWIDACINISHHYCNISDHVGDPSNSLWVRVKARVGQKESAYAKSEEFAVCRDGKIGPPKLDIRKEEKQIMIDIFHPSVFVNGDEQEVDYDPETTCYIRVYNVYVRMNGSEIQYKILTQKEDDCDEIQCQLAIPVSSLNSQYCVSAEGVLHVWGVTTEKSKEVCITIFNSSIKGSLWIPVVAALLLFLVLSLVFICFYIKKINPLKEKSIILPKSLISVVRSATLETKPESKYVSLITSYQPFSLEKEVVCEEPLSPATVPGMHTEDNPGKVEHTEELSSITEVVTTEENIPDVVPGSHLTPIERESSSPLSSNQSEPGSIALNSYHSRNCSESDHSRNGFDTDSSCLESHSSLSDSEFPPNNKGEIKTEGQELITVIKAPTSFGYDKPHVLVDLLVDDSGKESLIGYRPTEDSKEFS
Test: FRET or BRET

- fold higher apparent affinity than IFN-γR1 with DAF-ToFP: ~7 fold
B1: IFN-γR2 (accessory chain of the interferon-gamma receptor), fused to a fluorescent protein (receptor, UniProt P38484 22-337, looked up)
chain: APPDPLSQLPAPQHPKIRLYNAEQVLSWEPVALSNSTRPVVYQVQFKYTDSKWFTADIMSIGVNCTQITATECDFTAASPSAGFPMDFNVTLRLRAELGALHSAWVTMPWFQHYRNVTVGPPENIEVTPGEGSLIIRFSSPFDIADTSTAFFCYYVHYWEKGGIQQVKGPFRSNSISLDNLKPSRVYCLQVQAQLLWNKSNIFRVGHLSNISCYETMADASTELQQVILISVGTFSLLSVLAGACFFLVLKYRGLIKYWFHTPPSIPLQIEEYLKDPTQPILEALDKDSSPKDDVWDSVSIISFPEKEQEDVLQTL
